Test results taken from article PMC6278910, “Reduced structural flexibility for an exonuclease deficient DNA polymerase III mutant†”.

How the values were obtained:
[1] = biological target: T1, Pol III alpha Y453A (clamp-binding enhanced);Pol III epsilon exonuclease (clamp-binding enhanced);Pol III … (Escherichia coli;Escherichia …, UniProt P10443;P03007;P0ABS8;P0A988 1-1160;1-243;1-76;1-366, Y453A;A921L;M923L|T183L;M185L;A186P;F187L|E41C|); assay: smFRET; dCTP, Mg2+; kon,fast 0.7±0.1, kon,slow 0.05±0.01, koff 0.40±0.02 s-1; 20 mM Hepes pH 7.6, 5 mM potassium glutamate, 3 mM magnesium acetate, 2 mM DTT, 2 mM Trolox, 25 nM enzyme, 10 uM dCTP; temperature not stated. PIFE with unlabeled Pol III alpha or alpha-epsilon at 25 nM showed no binding (DNA not specified, not listed); details: protein: recombinant;recombinant;recombinant;recombinant, (HisTrap purification), Cy5 maleimide at C41;, copies: 1;1;1;2, label: 5' biotin-TEG and Cy3 (amino dT-C6) on template, 7 nt upstream from primer 3' terminus, 5' overhang 14 nt on template, matched G:ddC terminus
[2] = biological target: T2, Pol III alpha (clamp-binding enhanced; called wild type);Pol III epsilon exonuclease (clamp-binding … (Escherichia coli;Escherichia …, UniProt P10443;P03007;P0ABS8;P0A988 1-1160;1-243;1-76;1-366, A921L;M923L|T183L;M185L;A186P;F187L|E41C|); assay: smFRET; dCTP, Mg2+; kon,fast 0.8±0.1, kon,slow 0.030±0.010, koff 0.20±0.01 s-1 (25 nM enzyme); 20 mM Hepes pH 7.6, 5 mM potassium glutamate, 3 mM magnesium acetate, 2 mM DTT, 2 mM Trolox, 25 nM enzyme, 10 uM dCTP; temperature not stated. PIFE with unlabeled Pol III alpha or alpha-epsilon at 25 nM showed no binding (DNA not specified, not listed); details: protein: recombinant;recombinant;recombinant;recombinant, (HisTrap purification), Cy5 maleimide at C41;, copies: 1;1;1;2, label: 5' biotin-TEG and Cy3 (amino dT-C6) on template, 7 nt upstream from primer 3' terminus, 5' overhang 14 nt on template, matched G:ddC terminus
[3] = biological target: T2, Pol III alpha (clamp-binding enhanced; …); assay: smFRET; non-hydrolyzable dCTP analog, Mg2+; kon,fast 0.6±0.1, kon,slow 0.020±0.007, koff 0.20±0.01 s-1; 20 mM Hepes pH 7.6, 5 mM potassium glutamate, 3 mM magnesium acetate, 2 mM DTT, 2 mM Trolox, 25 nM enzyme, 10 uM dCTP; temperature not stated. PIFE with unlabeled Pol III alpha or alpha-epsilon at 25 nM showed no binding (DNA not specified, not listed); details: protein: recombinant;recombinant;recombinant;recombinant, (HisTrap purification), Cy5 maleimide at C41;, copies: 1;1;1;2, label: 5' biotin-TEG and Cy3 (amino dT-C6) on template, 7 nt upstream from primer 3' terminus, 5' overhang 14 nt on template, matched G:C terminus
[4] = biological target: T1, Pol III alpha Y453A (clamp-binding …); assay: smFRET; non-hydrolyzable dCTP analog (stated for wild type), Mg2+; kon,fast 0.8±0.1, kon,slow 0.04±0.01, koff 0.30±0.01 s-1; 20 mM Hepes pH 7.6, 5 mM potassium glutamate, 3 mM magnesium acetate, 2 mM DTT, 2 mM Trolox, 25 nM enzyme, 10 uM dCTP; temperature not stated. PIFE with unlabeled Pol III alpha or alpha-epsilon at 25 nM showed no binding (DNA not specified, not listed); details: protein: recombinant;recombinant;recombinant;recombinant, (HisTrap purification), Cy5 maleimide at C41;, copies: 1;1;1;2, label: 5' biotin-TEG and Cy3 (amino dT-C6) on template, 7 nt upstream from primer 3' terminus, 5' overhang 14 nt on template, matched G:C terminus
[5] = biological target: T1, Pol III alpha Y453A (clamp-binding …); assay: smFRET; dCTP, Mg2+; kon N.D., koff 0.30±0.02 s-1; 20 mM Hepes pH 7.6, 5 mM potassium glutamate, 3 mM magnesium acetate, 2 mM DTT, 2 mM Trolox, 25 nM enzyme, 10 uM dCTP; temperature not stated. PIFE with unlabeled Pol III alpha or alpha-epsilon at 25 nM showed no binding (DNA not specified, not listed); details: protein: recombinant;recombinant;recombinant;recombinant, (HisTrap purification), Cy5 maleimide at C41;, copies: 1;1;1;2, label: 5' biotin-TEG and Cy3 (amino dT-C6) on template, 7 nt upstream from primer 3' terminus, 5' overhang 14 nt on template, terminal double mismatch
[6] = biological target: T2, Pol III alpha (clamp-binding enhanced; …); assay: as above; details: protein: recombinant;recombinant;recombinant;recombinant, (HisTrap purification), Cy5 maleimide at C41;, copies: 1;1;1;2, label: 5' biotin-TEG and Cy3 (amino dT-C6) on template, 7 nt upstream from primer 3' terminus, 5' overhang 14 nt on template, terminal double mismatch
[7] = biological target: T2, Pol III alpha (clamp-binding enhanced; …); assay: smFRET; dCTP, Mg2+; kon,fast 0.6±0.1, kon,slow 0.010±0.003, koff 0.20±0.01 s-1; 20 mM Hepes pH 7.6, 5 mM potassium glutamate, 3 mM magnesium acetate, 2 mM DTT, 2 mM Trolox, 25 nM enzyme, 10 uM dCTP; temperature not stated. PIFE with unlabeled Pol III alpha or alpha-epsilon at 25 nM showed no binding (DNA not specified, not listed); details: protein: recombinant;recombinant;recombinant;recombinant, (HisTrap purification), Cy5 maleimide at C41;, copies: 1;1;1;2, label: 5' biotin-TEG and Cy3 (amino dT-C6) on template, 7 nt upstream from primer 3' terminus, 5' overhang 14 nt on template, terminal G:T mismatch
[8] = biological target: T1, Pol III alpha Y453A (clamp-binding …); assay: smFRET; dCTP, Mg2+; kon,fast 0.6±0.1, kon,slow 0.05±0.01, koff 0.30±0.01 s-1; 20 mM Hepes pH 7.6, 5 mM potassium glutamate, 3 mM magnesium acetate, 2 mM DTT, 2 mM Trolox, 25 nM enzyme, 10 uM dCTP; temperature not stated. PIFE with unlabeled Pol III alpha or alpha-epsilon at 25 nM showed no binding (DNA not specified, not listed); details: protein: recombinant;recombinant;recombinant;recombinant, (HisTrap purification), Cy5 maleimide at C41;, copies: 1;1;1;2, label: 5' biotin-TEG and Cy3 (amino dT-C6) on template, 7 nt upstream from primer 3' terminus, 5' overhang 14 nt on template, terminal G:T mismatch
[9] = biological target: T2, Pol III alpha (clamp-binding enhanced; …); assay: smFRET; dCTP, Mg2+; kon,fast 0.3±0.1, kon,slow 0.020±0.002, koff 0.20±0.01 s-1; 20 mM Hepes pH 7.6, 5 mM potassium glutamate, 3 mM magnesium acetate, 2 mM DTT, 2 mM Trolox, 25 nM enzyme, 10 uM dCTP; temperature not stated. PIFE with unlabeled Pol III alpha or alpha-epsilon at 25 nM showed no binding (DNA not specified, not listed); details: protein: recombinant;recombinant;recombinant;recombinant, (HisTrap purification), Cy5 maleimide at C41;, copies: 1;1;1;2, label: 5' biotin-TEG and Cy3 (amino dT-C6) on template, 7 nt upstream from primer 3' terminus, 5' overhang 14 nt on template, terminal G:A mismatch
[10] = biological target: T1, Pol III alpha Y453A (clamp-binding …); assay: smFRET; dCTP, Mg2+; kon,fast 1.5±0.3, kon,slow 0.04±0.01, koff 0.30±0.02 s-1; 20 mM Hepes pH 7.6, 5 mM potassium glutamate, 3 mM magnesium acetate, 2 mM DTT, 2 mM Trolox, 25 nM enzyme, 10 uM dCTP; temperature not stated. PIFE with unlabeled Pol III alpha or alpha-epsilon at 25 nM showed no binding (DNA not specified, not listed); details: protein: recombinant;recombinant;recombinant;recombinant, (HisTrap purification), Cy5 maleimide at C41;, copies: 1;1;1;2, label: 5' biotin-TEG and Cy3 (amino dT-C6) on template, 7 nt upstream from primer 3' terminus, 5' overhang 14 nt on template, terminal G:A mismatch

B1: G:ddC (dsDNA)
DNA 1: CATAATATCCTCAGGAGTCCTTCGTCCTAGTACTACTCA
DNA 2: TGAGTAGTACTAGGACGAAGGACTC
modifications: 3' dideoxycytosine on primer
- binding result [1]: binds
- binding result [2]: binds

B2: G:C (dsDNA)
DNA 1: CATAATATCCTCAGGAGTCCTTCGTCCTAGTACTACTCA
DNA 2: TGAGTAGTACTAGGACGAAGGACTC
- binding result [3]: binds
- binding result [4]: binds

B3: G:AA (dsDNA)
DNA 1: CATAATATCCTCAGGAGTCCTTCGTCCTAGTACTACTCA
DNA 2: TGAGTAGTACTAGGACGAAGGACAA
modifications: phosphorothioate not stated for this DNA
- binding result [5]: binds
- binding result [6]: binds

B4: G:T (dsDNA)
DNA 1: CATAATATCCTCAGGAGTCCTTCGTCCTAGTACTACTCA
DNA 2: TGAGTAGTACTAGGACGAAGGACTT
modifications: phosphorothioate in primer (position not given)
- binding result [7]: binds
- binding result [8]: binds

B5: G:A (dsDNA)
DNA 1: CATAATATCCTCAGGAGTCCTTCGTCCTAGTACTACTCA
DNA 2: TGAGTAGTACTAGGACGAAGGACTA
modifications: phosphorothioate in primer (position not given)
- binding result [9]: binds
- binding result [10]: binds
